Measurements taken from US20140179898A1.

Biological target: IgG1-type humanized monoclonal antibody
Experiment: stepwise pH affinity chromatography (bound at pH 7.0, elution buffer pH 4.0), bought column

HiTrap rProtein A FF (GE Healthcare) (from UniProt P38507 37-327)
pH of the antibody's elution peak: 3.7 pH
